Assay results published in publication PMC6905151, “Mapping of the binding site for FcμR in human IgM-Fc” (Biochimica et Biophysica Acta. Proteins and Proteomics, 2020).

Target: T1, soluble extracellular immunoglobulin-like domain of FcμR (human)
T1 construct: FcμR (FAIM3, TOSO), human; 390-aa polypeptide with a 17-aa signal peptide and a 107-aa Ig-like domain; The receptor clone came from Prof; H. Kubagawa; also called sIgFcμR; not shown: His tag (from the nickel column chromatography)
T1 sequence (O60667 whole entry, looked up): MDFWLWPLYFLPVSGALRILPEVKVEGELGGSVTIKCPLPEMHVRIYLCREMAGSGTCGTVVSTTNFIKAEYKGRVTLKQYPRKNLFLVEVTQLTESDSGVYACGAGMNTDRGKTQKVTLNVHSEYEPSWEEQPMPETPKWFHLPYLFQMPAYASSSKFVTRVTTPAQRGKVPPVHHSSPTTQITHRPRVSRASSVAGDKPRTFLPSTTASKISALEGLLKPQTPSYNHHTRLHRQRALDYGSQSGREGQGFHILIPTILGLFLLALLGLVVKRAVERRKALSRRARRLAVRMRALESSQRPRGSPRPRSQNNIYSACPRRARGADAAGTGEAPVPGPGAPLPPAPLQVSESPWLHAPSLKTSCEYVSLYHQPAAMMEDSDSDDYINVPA
Assay: SPR; Biacore T200, 25 °C, 0.01 M HEPES, 0.15 M NaCl, 0.005% Surfactant P20, pH 7.4; IgM, IgM-Fc, Fcμ3-4 or IgM-Fc mutants immobilised on CM5 by amine coupling; analyte sIgFcμR 0.25 μM to 12 μM; steady state, 1:1 binding model
Conditions: both partners purified

- Kd: 1090 nM
B1: Fcμ3-4, dimer of Cμ3-Cμ4 domains (domain or fragment)
chain: DQDTAIRVFAIPPSFASIFLTKSTKLTCLVTDLTTYDSVTISWTRQNGEAVKTHTNISESHPNATFSAVGEASISEDDWNSGERFTCTVTHTDLPSPLKQTISRPKGVALHRPDVYLLPPAREQLNLRESATITCLVTGFSPADVFVQWMQRGQPLSPEKYVTSAPMPEPQAPGRYFAHSILTVSEEEWNTGETYTCVVAHEALPNRVTERTVDKSTGK
